Results published in the supplement of paper PMC12667976.
± gives the standard error.

B1: library; numbered along this chain (parent)
chain: MATDAALRRLLRLHRTEIAVAVDSAFPLLHALADHDVVPEDKFQETLHLKEKEGCPQAFHALLSWLLTQDSTAILDFWRVLFKDYNLERYGRLQPILDSFPKDVDLSQPRKGRKPPAVPKALVPPPRLPTKRKASEEARAAAPAALTPRGTASPGSQLKAKPPKKPESSAEQQRLPLGNGIQTMSASVQRAVAMSSGDVPGARGAVEGILIQQVFESGGSKKCIQVGGEFYTPSKFEDSGSGKNKARSSSGPKPLVRAKGAQGAAPGGGEARLGQQGSVPAPLALPSDPQLHQKNEDECAVCRDGGELICCDGCPRAFHLACLSPPLREIPSGTWRCSSCLQATVQEVQPRAEEPRPQEPPVETPLPPGLRSAGEEVRGPPGEPLAGMDTTLVYKHLPAPPSAAPLPGLDSSALHPLLCVGPEGQQNLAPGARCGVCGDGTDVLRCTHCAAAFHWRCHFPAGTSRPGTGLRCRSCSGDVTPAPVEGVLAPSPARLAPGPAKDDTASHEPALHRDDLESLLSEHTFDGILQWAIQSMARPAAPFPS

Variants of: B1
Assay: AIRE transcriptional activation functional score (insulin promoter-GFP; nonsense median 0, synonymous median 1) (normalised score); higher = higher AIRE activity (more reporter activation)
Conditions: with insulin promoter-GFP reporter in HEK293
Method: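 Deep mutational scan of full-length human AIRE (codon-optimized cDNA, DT-POPCode NNN libraries over three regions) integrated at a Bxb1 landing pad in HEK293 cells carrying an insulin core promoter-GFP reporter at a Flp-In site. Cells were sorted for the top 10% GFP about 14 days after transfection. Variant frequency log-ratios (select vs non-select, TileSeq) were rescaled so that the nonsense median is 0 and the synonymous median is 1, then averaged over biological replicates.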

Variant	AIRE transcriptional activation functional score
C223H	0.784 ± 0.27
C223I	0.0416 ± 0.48
C223K	0.604 ± 0.12
C223L	0.844 ± 0.29
C223M	0.937 ± 0.17
C223N	0.407 ± 0.086
C223P	0.562 ± 0.33
C223Q	0.474 ± 0.13
C223R	0.797 ± 0.39
C223S	0.477 ± 0.24
C223T	1.15 ± 0.36
C223V	0.923 ± 0.11
C223W	-0.0978 ± 0.045
C223Y	0.577 ± 0.15
I224A	0.495 ± 0.12
I224C	0.709 ± 0.38
I224D	0.864 ± 0.15
I224E	1 ± 0.19
I224F	0.959 ± 0.2
I224G	0.296 ± 0.28
I224H	0.512 ± 0.22
I224K	0.822 ± 0.32
I224L	0.689 ± 0.26
I224M	1.07 ± 0.12

Variant	AIRE transcriptional activation functional score
I224N	0.402 ± 0.21
I224P	0.419 ± 0.17
I224Q	0.197 ± 0.19
I224R	0.498 ± 0.24
I224S	0.599 ± 0.27
I224T	0.559 ± 0.09
I224V	0.58 ± 0.23
I224W	1.11 ± 0.12
I224Y	0.84 ± 0.094
Q225A	0.99 ± 0.27
Q225C	-0.424 ± 0.056
Q225D	0.269 ± 0.14
Q225E	1.13 ± 0.34
Q225F	-0.00208 ± 0.1
Q225G	0.56 ± 0.37
Q225H	0.951 ± 0.054
Q225I	0.248 ± 0.23
Q225K	1.23 ± 0.028
Q225L	-0.23 ± 0.54
Q225M	-0.00432 ± 0.073
Q225N	0.762 ± 0.14
Q225P	0.572 ± 0.47
Q225R	0.916 ± 0.2
Q225S	0.993 ± 0.35

Variant	AIRE transcriptional activation functional score
Q225T	0.688 ± 0.18
Q225V	-0.115 ± 0.27
Q225W	0.582 ± 0.095
Q225Y	-0.259 ± 0.17
V226A	0.677 ± 0.31
V226C	0.347 ± 0.12
V226D	0.724 ± 0.24
V226E	0.0129 ± 0.17
V226F	0.889 ± 0.18
V226G	0.814 ± 0.2
V226H	0.579 ± 0.27
V226I	0.848 ± 0.29
V226K	0.148 ± 0.13
V226L	1.08 ± 0.24
V226M	0.67 ± 0.12
V226N	-0.139 ± 0.091
V226P	1.09 ± 0.3
V226Q	0.554 ± 0.093
V226R	0.531 ± 0.26
V226S	0.403 ± 0.54
V226T	0.799 ± 0.36
V226W	1.21 ± 0.044
V226Y	0.994 ± 0.18
G227A	0.503 ± 0.21

Variant	AIRE transcriptional activation functional score
G227C	0.85 ± 0.24
G227E	0.368 ± 0.087
G227F	-0.195 ± 0.43
G227H	0.263 ± 0.3
G227I	-0.209 ± 0.36
G227K	0.245 ± 0.1
G227L	0.445 ± 0.48
G227M	-1.01 ± 0.066
G227N	0.587 ± 0.32
G227P	0.459 ± 0.12
G227Q	1.02 ± 0.26
G227R	0.425 ± 0.44
G227S	0.225 ± 0.36
G227T	-0.68 ± 0.35
G227V	0.378 ± 0.5
G227W	0.742 ± 0.041
G227Y	0.111 ± 0.25
G228A	0.509 ± 0.13
G228C	0.71 ± 0.39
G228D	1.05 ± 0.17
G228E	0.668 ± 0.36
G228F	0.331 ± 0.12
G228H	-2 ± 0.29
G228I	-0.341 ± 0.56

Variant	AIRE transcriptional activation functional score
G228K	0.799 ± 0.39
G228L	-1.11 ± 0.33
G228N	1.51 ± 0.18
G228P	0.904 ± 0.33
G228Q	-1.12 ± 0.25
G228R	1.26 ± 0.3
G228S	0.591 ± 0.44
G228T	1.57 ± 0.23
G228V	0.421 ± 0.28
G228W	-0.356 ± 0.059
G228Y	0.381 ± 0.37
E229A	-0.0287 ± 0.2
E229C	0.0314 ± 0.21
E229D	0.886 ± 0.073
E229F	0.704 ± 0.12
E229G	1.15 ± 0.093
E229H	0.361 ± 0.094
E229I	0.102 ± 0.31
E229K	0.571 ± 0.18
E229L	0.0432 ± 0.24
E229M	0.122 ± 0.069
E229N	0.433 ± 0.24
E229P	0.679 ± 0.25
E229Q	1.13 ± 0.11

Variant	AIRE transcriptional activation functional score
E229R	0.148 ± 0.3
E229S	0.662 ± 0.18
E229T	-0.101 ± 0.21
E229V	0.158 ± 0.15
E229W	-0.162 ± 0.12
E229Y	-0.363 ± 0.21
F230A	0.596 ± 0.17
F230C	0.611 ± 0.09
F230D	0.723 ± 0.12
F230E	0.377 ± 0.23
F230G	0.617 ± 0.19
F230H	0.48 ± 0.089
F230I	0.507 ± 0.29
F230K	0.376 ± 0.08
F230L	0.774 ± 0.16
F230M	0.801 ± 0.15
F230N	0.425 ± 0.38
F230P	0.293 ± 0.47
F230Q	0.665 ± 0.046
F230R	0.603 ± 0.38
F230S	0.473 ± 0.15
F230T	0.761 ± 0.38
F230V	0.617 ± 0.11
F230W	0.97 ± 0.041

Variant	AIRE transcriptional activation functional score
F230Y	0.502 ± 0.27
Y231A	0.676 ± 0.27
Y231C	0.601 ± 0.069
Y231D	0.734 ± 0.077
Y231E	0.639 ± 0.14
Y231F	1.05 ± 0.094
Y231G	0.475 ± 0.11
Y231H	0.724 ± 0.039
Y231I	0.701 ± 0.1
Y231K	0.204 ± 0.054
Y231L	0.803 ± 0.15
Y231M	0.624 ± 0.023
Y231N	0.775 ± 0.13
Y231P	0.54 ± 0.36
Y231Q	0.625 ± 0.18
Y231R	0.669 ± 0.13
Y231S	0.49 ± 0.12
Y231T	0.493 ± 0.17
Y231V	0.771 ± 0.16
Y231W	1.05 ± 0.014
T232A	0.926 ± 0.13
T232C	0.594 ± 0.23
T232D	1.19 ± 0.14
